{"source": "patent US20030049246A1", "key": {"[1]": {"target": "SHH (mouse, endogenous in purified granule neuron precursor aggregates) (mouse) (UniProt Q62226)", "sequence (Q62226 25-198 limits assumed)": "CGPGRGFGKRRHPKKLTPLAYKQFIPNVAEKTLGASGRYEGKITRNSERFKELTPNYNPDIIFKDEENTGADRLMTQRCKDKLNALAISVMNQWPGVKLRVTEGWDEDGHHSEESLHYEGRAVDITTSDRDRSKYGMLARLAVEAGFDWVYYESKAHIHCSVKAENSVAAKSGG", "assay": "cell-based or functional assay"}, "[2]": {"target": "SHH (chick, endogenous in cerebellar cortical explants) (chick) (UniProt Q91035)", "sequence (Q91035 27-200 limits assumed)": "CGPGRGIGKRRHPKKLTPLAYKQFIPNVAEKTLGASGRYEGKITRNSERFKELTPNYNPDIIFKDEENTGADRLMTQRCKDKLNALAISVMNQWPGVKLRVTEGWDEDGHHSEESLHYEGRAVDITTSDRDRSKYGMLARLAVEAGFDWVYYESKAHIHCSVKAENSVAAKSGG", "assay": "cell-based or functional assay"}}, "data": [{"substance": "blocking anti-SHH monoclonal antibody 5E1", "values": [{"measurement": "fold decrease in proliferation of purified mouse granule neuron aggregates", "setting": "[1]", "result": "3 to 4", "unit": "fold"}, {"measurement": "fold decrease in BrdU incorporation inside D10 chick cerebellar explants (96 h)", "setting": "[2]", "result": "3 to 4", "unit": "fold"}]}]}
